For one data set, the system named is T1, wild-type RNase 1.
T1 sequence: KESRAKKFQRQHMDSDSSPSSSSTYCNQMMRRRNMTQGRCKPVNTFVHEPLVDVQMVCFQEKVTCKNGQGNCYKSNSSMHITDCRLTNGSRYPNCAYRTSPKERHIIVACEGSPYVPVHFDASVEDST

The subject of data set [1] is T2, Str3 circular zymogen of RNase 1.
T2 sequence: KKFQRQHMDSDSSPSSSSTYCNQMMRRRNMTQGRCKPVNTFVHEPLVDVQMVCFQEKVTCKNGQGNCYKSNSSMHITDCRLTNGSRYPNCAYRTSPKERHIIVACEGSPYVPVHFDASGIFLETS

For data set [2], the system named is T3, Str4 circular zymogen of RNase 1.
T3 sequence: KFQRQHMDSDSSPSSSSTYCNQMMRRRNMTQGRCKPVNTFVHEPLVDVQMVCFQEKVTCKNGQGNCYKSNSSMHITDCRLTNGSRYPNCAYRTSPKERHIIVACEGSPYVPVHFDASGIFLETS

In data set [3] the test system is T4, Str2 circular zymogen of RNase 1.
T4 sequence: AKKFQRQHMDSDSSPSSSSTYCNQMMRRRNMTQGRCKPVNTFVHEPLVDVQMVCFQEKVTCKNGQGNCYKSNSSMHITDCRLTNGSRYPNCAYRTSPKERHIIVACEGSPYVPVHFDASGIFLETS

The results in this text go back to patent publication US20200405829.

As for HIV-1 protease, the “proteolytic cleavage after 3 hours of treatment at 37° C.” value in the data set on wild-type RNase 1 was “no detectable cleavage of wild-type RNase 1 was observed”. Further, the figures for the kcat/KM (HIV-1 protease) in data set [1], in data set [2] and in data set [3] were 1300 M⁻¹ s⁻¹, 2500 M⁻¹ s⁻¹ and 3900 M⁻¹ s⁻¹, respectively.
